Reference: article PMC5774825

Key:
[1] = molecular target: Ab-WbjB (UDP-N-acetylglucosamine 4,6-dehydratase, WbjB) of Acinetobacter baumannii D1279779 (Acinetobacter baumannii strain D1279779); assay: crystal structure; Se-Met Ab-WbjB, space group P212121, six chains in the asymmetric unit, NADP+ bound to each chain, 2.65 Å
[2] = molecular target: Ab-WbjB (UDP-N-acetylglucosamine 4,6-dehydratase, WbjB) of Acinetobacter baumannii D1279779 (Acinetobacter baumannii strain D1279779); assay: SEC; some laboratory samples of Ab-WbjB, presumed by the authors to hold less NADP+; dimer form in solution (example in S1 Fig)
[3] = molecular target: Ab-WbjB (UDP-N-acetylglucosamine 4,6-dehydratase, WbjB) of Acinetobacter baumannii D1279779 (Acinetobacter baumannii strain D1279779); assay: SEC; Superdex 200 10/300 GL, Buffer A (50 mM HEPES pH 7.5, 200 mM NaCl, 5% v/v glycerol), 0.5 mL/min; hexamer

Ab-WbjB (UDP-N-acetylglucosamine 4,6-dehydratase, WbjB) of Acinetobacter baumannii D1279779 (enzyme)
stoichiometry N [1]: 6
stoichiometry N [2]: 2
stoichiometry N [3]: 6
